In US20240034801A1 (BEIJING HANMI PHARMACEUTICAL, published 2024):

Legend:
[1] = target: T1, recombinant human PD-L1 (Sino Biological Inc., catalog number 100 84-H08H) (human, UniProt Q9NZQ7 19-239); assay: ELISA, recombinant human PD-L1 coated (FIG. 8A)
T1 construct: Bought protein coated on the ELISA plate
Protocol: (§1) The detailed process is as follows: a 96-well high-adsorption ELISA plate (Costar, catalog number 42592) was coated with 1 μg/mL recombinant human PD-L1 (Sino Biological Inc., catalog number 100 84-H08H) or human 4-1BB (Sino Biological Inc., catalog number 10041-H08H) at 100 μL per well using carbonate buffer solution, pH=9.6 at 4° C. overnight. The plate was wash 5 times with PBST, and then blocked using PBST with 1% BSA 300 μL/well and incubated at 25° C. for 1 hour, and then washed 5 times with PBST. The heterodimeric antibody samples serially diluted in PBST with 1% BSA and the control were added, 100 μL per well and incubated at 25° C. for 1 hour. The plate was washed 5 times with PBST. The horseradish peroxidase-labeled anti-human IgG antibody (Chemicon, catalog number AP309P) diluted 1:10000 in PBST with 1% BSA was then added, 100 μL per well, and incubated at 25° C. for 1 hour. The plate was […] with PBST. The colorimetric substrate TMB was added, 100 μL/well, and developed at room temperature for 10 minutes. 1 M H₂SO₄, was added, 100 μL/well, to stop the development. The absorbance at 450 nm was read on a microplate reader.

[2] = target: T2, recombinant human 4-1BB (Sino Biological Inc., catalog number 10041-H08H) (human, UniProt Q07011 24-186); assay: ELISA, human 4-1BB coated (FIG. 8B; assay format inferred from the order of the methods)
T2 construct: Bought protein coated on the ELISA plate
Protocol: as §1

T1 sequence (Q9NZQ7 19-239 limits assumed): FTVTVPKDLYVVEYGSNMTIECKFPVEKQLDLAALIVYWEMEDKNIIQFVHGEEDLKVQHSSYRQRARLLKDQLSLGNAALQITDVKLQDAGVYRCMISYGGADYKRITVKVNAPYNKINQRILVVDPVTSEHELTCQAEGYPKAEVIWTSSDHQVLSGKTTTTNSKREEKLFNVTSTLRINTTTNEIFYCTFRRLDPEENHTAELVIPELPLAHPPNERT

binding result [1]: binds
binding result [2]: binds
B1: anti-PD-L1/anti-4-1BB heterodimeric antibody BH3120h (bispecific antibody, human IgG1, kappa, N297A)
heavy 1: not shown
light 1: DIQMTQSPSSLSASVGDRVTITCKASQDVHTAVAWIQQKPGKSPKLLIYSASNRYTGVPSRFSGSGSGTDFTFTISSLQPEDIATYYCQQHYITPLTFGQGTKLEIKRTVAAPSVFIFPPSDEQLKSGTASVVCLLNNFYPREAKVQWKVDNALQSGNSQESVTEQDSKDSTYSLSSTLTLSKADYEKHKVYACEVTHQGLSSPVTKSFNRGEC
heavy 2: QVQLVQSGAEVKKPGSSVKVSCKASGYTFTSYWINWVRQAPGQGLEWMGNIYPSDSYTNYNQKFKDRVTITADKSTSTAYMELSSLRSEDTAVYYCARLYYGSSPFDYWGQGTTVTVSSASTKGPSVFPLAPSSKSTSGGTAALGCLVKDYFPEPVTVSWNSGALTSGVHTFPAVLQSSGLYSLSSVVTVPSSSLGTQTYICNVNHKPSNTKVDKKVEPKSCDKTHTCPPCPAPELLGGPSVFLFPPKPKDTLMISRTPEVTCVVVDVSHEDPEVKFNWYVDGVEVHNAKTKPREEQYASTYRVVSVLTVLHQDWLNGKEYKCKVSNKALPAPIEKTISKAKGQPREPQVYTEPPSRDELTKNQVSLTCLVKGFYPSDIAVEWESNGQPENNYKTTPPVLDSDGSFFLLSVLTVDKSRWQQGNVFSCSVMHEALHNHYTQKSLSLSPGK
light 2: not shown
notes: also called anti-PD-L1/anti-4-1BB bispecific antibody; anti-PD-L1/anti-4-1BB heterodimeric antibody molecule
